{
  "source": "patent EP2670776B1",
  "target": "Knob F241R/F243S (knob Fc with F241R/F243S mutations) (human) [IgG part: P0DOX5]",
  "assay": "size exclusion chromatography, against wild-type knob Fc",
  "data": [
    {"substance": "Knob F241R/F243S (knob Fc with F241R/F243S mutations) (from UniProt P0DOX5 223-449)", "values": [
      {"measurement": "Reduction in homodimer content", "result": 64.5, "unit": "%"}
    ]}
  ]
}
